Values quoted from earlier work, collected in article PMC9858354.

Biological target: CCRL2 (Homo sapiens) (UniProt O00421)
Assay: radioligand

Chain of CCRL2 (Homo sapiens) (O00421 whole entry): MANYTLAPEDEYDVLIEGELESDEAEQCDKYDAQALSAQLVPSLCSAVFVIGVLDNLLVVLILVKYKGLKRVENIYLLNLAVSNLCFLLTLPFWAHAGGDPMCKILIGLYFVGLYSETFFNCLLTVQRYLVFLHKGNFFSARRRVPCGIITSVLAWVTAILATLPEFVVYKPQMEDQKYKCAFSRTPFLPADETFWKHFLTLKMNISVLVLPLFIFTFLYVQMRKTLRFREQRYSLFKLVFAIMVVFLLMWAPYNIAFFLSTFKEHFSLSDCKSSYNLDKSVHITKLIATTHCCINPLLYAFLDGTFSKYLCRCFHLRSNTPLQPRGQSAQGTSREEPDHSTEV
Chain of chemerin (Q99969 21-157): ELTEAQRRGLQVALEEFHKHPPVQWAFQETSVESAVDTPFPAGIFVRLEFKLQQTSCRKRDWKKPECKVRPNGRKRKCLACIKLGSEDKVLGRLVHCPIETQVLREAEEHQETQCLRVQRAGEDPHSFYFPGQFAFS

Kd: 2.35 nM
Substance: chemerin (from UniProt Q99969)
